Test results from patent US20240317847A1 (Bayer, published 2024).
Substitutions are numbered along the chain they refer to. One block for each binder: values may come before it.

How the values were obtained:
[1] = molecular target: T1, human IL-11 (human, UniProt P20809 22-199); assay: SPR, antibody captured, IL-11 as analyte
T1 construct: bought from Invigate; also called hIL-11; hIL11
T1 sequence: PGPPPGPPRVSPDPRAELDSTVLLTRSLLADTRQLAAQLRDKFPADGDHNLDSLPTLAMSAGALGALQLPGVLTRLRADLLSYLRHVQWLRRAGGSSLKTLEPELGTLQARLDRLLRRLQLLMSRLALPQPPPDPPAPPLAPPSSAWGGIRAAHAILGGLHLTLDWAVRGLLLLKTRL
Experimental: (§1) Antibodies were captured via anti-mouse Fc IgGs (“Mouse antibody capture kit, Order No. BR100383, Cytiva) covalently amine coupled to a Series S CM5 sensor chip (Cytiva). The amine coupling was carried out according to the manufacturer's instructions using 1-ethyl-3-(3-dimethylaminopropyl) carbodiimide hydrochloride (EDC), N-hydroxysuccinimide (NHS) and ethanolamine HCl, pH 8.5 (“Amine Coupling Kit” BR-1000-50, Cytiva.). Human IL-11 (Invigate, e.g., lot #C121021-19), and murine IL-11 (Invigate, e.g., lot #C210819-09) were used as analytes. […] Based on that experiment an IL-11 concentration range was chosen to optimally determine kinetics and affinity of anti-IL-11 antibodies in multicycle kinetics mode. The sensor surface was regenerated with glycine pH 1.7 after each antigen injection. Obtained sensorgrams were double referenced (subtraction of reference flow cell signal and buffer injection) and were fitted to a 1:1 Langmuir binding model to derive kinetic data using the Biacore T200 Evaluation software or the Biacore Insight software.
(§2) 42 hits from the IL-11 and […] screening analysis were selected, expressed by transient transfection of mammalian cells and purified as described in Example 15. Antibodies were then tested for human IL-11 and murine IL-11 binding by SPR as described in Example 16.

[2] = molecular target: T2, murine IL-11 (mouse, UniProt P47873 22-199); assay: SPR, antibody captured, IL-11 as analyte
T2 construct: bought from Invigate; also called mIL-11; mIL11
T2 sequence: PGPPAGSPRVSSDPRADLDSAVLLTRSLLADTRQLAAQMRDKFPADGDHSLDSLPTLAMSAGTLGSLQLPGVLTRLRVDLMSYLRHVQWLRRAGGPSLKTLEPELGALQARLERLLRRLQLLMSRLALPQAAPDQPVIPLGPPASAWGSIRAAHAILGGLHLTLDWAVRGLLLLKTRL
Experimental: as §1, §2

Kd [1]: 13 nM
Kd [2]: 0.65 nM
B1: TPP-26303 (antibody, V domains shown)
VH: EVQLLESGGGLVQPGGSLRLSCAASGFTFSSYGMHWVRQAPGKGLEWVSVISYDGSYKYYADSVKGRFTISRDNSKNTLYLQMNSLRAEDTAVYYCAAGVPDYWGQGTLVTVSS
VL: QSVLTQPPSASGTPGQRVTISCTGSSSNIGAGYDVHWYQQLPGTAPKLLIYSNNERPEGVPDRFSGSKSGTSASLAISGLRSEDEADYYCAAWDDSLNGPVFGGGTKLTVL
notes: constant regions not restated

Kd [1]: 13 nM
Kd [2]: 0.83 nM
B2: TPP-26320 (antibody, V domains shown)
VH: B1 VH
VL: B1 VL with N54E, E58S
notes: constant regions not restated

Kd [1]: 13 nM
Kd [2]: 0.66 nM
B3: TPP-26310 (antibody, V domains shown)
VH: B1 VH
VL: B1 VL with E58W
notes: constant regions not restated

Kd [1]: 8.1 nM
Kd [2]: 0.9 nM
B4: TPP-26317 (antibody, V domains shown)
VH: B1 VH
VL: B1 VL with G32E, E58S
notes: constant regions not restated

Kd [1]: 8.2 nM
Kd [2]: 0.8 nM
B5: TPP-26309 (antibody, V domains shown)
VH: B1 VH
VL: B1 VL with E58S, D95F
notes: constant regions not restated

Kd [1]: 12 nM
Kd [2]: 1.4 nM
B6: TPP-26319 (antibody, V domains shown)
VH: B1 VH
VL: B1 VL with R56K, E58S
notes: constant regions not restated

Kd [1]: 16 nM
Kd [2]: 1.6 nM
B7: TPP-26307 (antibody, V domains shown)
VH: B1 VH
VL: B1 VL with E58S, D95I
notes: constant regions not restated

Kd [1]: 9.1 nM
Kd [2]: 0.46 nM
B8: TPP-26313 (antibody, V domains shown)
VH: B1 VH
VL: B1 VL with G32Y, E58S
notes: constant regions not restated

Kd [1]: 12 nM
Kd [2]: 0.65 nM
B9: TPP-26306 (antibody, V domains shown)
VH: B1 VH
VL: B1 VL with E58S, D95Q
notes: constant regions not restated

Kd [1]: 8.3 nM
Kd [2]: 0.56 nM
B10: TPP-26314 (antibody, V domains shown)
VH: B1 VH
VL: B1 VL with E58S, D95W
notes: constant regions not restated

Kd [1]: 14 nM
Kd [2]: 0.95 nM
B11: TPP-26315 (antibody, V domains shown)
VH: B1 VH
VL: B1 VL with G32H, E58S
notes: constant regions not restated

Kd [1]: 10 nM
Kd [2]: 0.8 nM
B12: TPP-26312 (antibody, V domains shown)
VH: B1 VH
VL: B1 VL with Y33L, E58S
notes: constant regions not restated

Kd [1]: 17 nM
Kd [2]: 1.3 nM
B13: TPP-26308 (antibody, V domains shown)
VH: B1 VH
VL: B1 VL with E58S, D95V
notes: constant regions not restated

Kd [1]: 14 nM
Kd [2]: 8.1 nM
B14: TPP-26318 (antibody, V domains shown)
VH: B1 VH
VL: B1 VL with D34F, E58S
notes: constant regions not restated

Kd [1]: 9.3 nM
Kd [2]: 0.94 nM
B15: TPP-26321 (antibody, V domains shown)
VH: B1 VH
VL: B1 VL with E58S, D95L
notes: constant regions not restated

Kd [1]: 8.4 nM
Kd [2]: 0.72 nM
B16: TPP-26316 (antibody, V domains shown)
VH: B1 VH
VL: B1 VL with E58S, D95M
notes: constant regions not restated

Kd [1]: 12 nM
Kd [2]: 0.64 nM
B17: TPP-26304 (antibody, V domains shown)
VH: B1 VH
VL: B1 VL with G30W, E58S
notes: constant regions not restated
